Measured values reported in paper PMC8294587, “Intrinsic differences in the mechanisms of Tie2 binding to angiopoietins exploited by directed evolution to create an Ang2-selective ligand trap” (The Journal of Biological Chemistry, 2021).

Experiments:
Assay in all cases: ELISA; recombinant Ang1 or Ang2 immobilised on Maxisorp plates, blocked with TBS, 0.1% Triton-X100, 5% milk powder; Tie2 ectodomain proteins bound for 1 h; detected with anti-Tie2 ectodomain antibodies; EC50 = concentration of ectodomain for 50% of maximal binding
Settings in all cases: both partners purified
[1] = target: T1, Angiopoietin-1 (UniProt Q15389 16-498)
T1 construct: recombinant Ang1; the residue numbers printed for Ang1 (Gln415, Asp450, Leu471, Tyr478) come from the cited structure 4K0V; also called Ang1; source: recombinant
T1 sequence (looked up): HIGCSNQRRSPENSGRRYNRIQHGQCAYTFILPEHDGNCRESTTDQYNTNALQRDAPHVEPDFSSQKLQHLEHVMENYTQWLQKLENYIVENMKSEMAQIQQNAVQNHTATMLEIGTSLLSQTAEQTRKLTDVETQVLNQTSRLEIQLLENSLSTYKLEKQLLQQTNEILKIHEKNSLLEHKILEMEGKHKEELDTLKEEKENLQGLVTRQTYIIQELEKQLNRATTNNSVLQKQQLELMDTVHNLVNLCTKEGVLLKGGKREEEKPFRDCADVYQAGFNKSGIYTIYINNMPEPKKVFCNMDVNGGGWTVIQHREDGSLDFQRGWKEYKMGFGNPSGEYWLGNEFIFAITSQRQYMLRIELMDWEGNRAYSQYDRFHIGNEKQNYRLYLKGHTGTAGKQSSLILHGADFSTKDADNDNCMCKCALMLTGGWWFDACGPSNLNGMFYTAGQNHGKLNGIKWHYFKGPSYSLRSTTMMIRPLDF

[2] = target: T2, Angiopoietin-2 (UniProt O15123 19-496)
T2 construct: recombinant Ang2; the residue numbers printed for Ang2 (Asp448, Phe469, Ser480) come from the cited structure 2GY7; also called Ang2; source: recombinant
T2 sequence (looked up): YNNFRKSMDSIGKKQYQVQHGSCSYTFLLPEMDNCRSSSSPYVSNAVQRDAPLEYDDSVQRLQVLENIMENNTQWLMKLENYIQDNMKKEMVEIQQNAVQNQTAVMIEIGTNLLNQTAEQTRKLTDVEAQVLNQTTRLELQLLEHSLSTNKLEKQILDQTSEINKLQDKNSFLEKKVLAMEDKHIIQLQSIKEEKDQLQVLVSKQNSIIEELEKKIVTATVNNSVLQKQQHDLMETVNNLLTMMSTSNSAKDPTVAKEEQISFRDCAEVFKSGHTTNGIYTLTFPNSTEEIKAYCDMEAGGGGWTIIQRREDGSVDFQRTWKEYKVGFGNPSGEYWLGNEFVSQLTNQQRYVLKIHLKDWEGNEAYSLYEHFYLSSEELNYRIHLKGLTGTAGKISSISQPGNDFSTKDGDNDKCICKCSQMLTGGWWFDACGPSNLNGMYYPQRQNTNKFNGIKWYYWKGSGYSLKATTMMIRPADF

[3] = target: T2, Angiopoietin-2; remark: listed apart in the source

EC50 [1] | EC50 [2] | binding result [3] | Binder
26.4 nM | 0.5 nM |  | Tie2 ectodomain-Fc H168A (Fc fusion, human, UniProt Q02763 23-442, looked up, signal peptide in the construct; Tie2 ectodomain, human, residues 1-442; also called Tie2(H168A); His168Ala; source: Hek293, transfected, purified from culture medium (nickel chromatography); not shown: Fc (fragment of human Fc immunoglobulin domain, after a GS4 linker), C-terminal, kept) AMDLILINSLPLVSDAETSLTCIASGWRPHEPITIGRDFEALMNQHQDPLEVTQDVTREWAKKVVWKREKASKINGAYFCEGRVRGEAIRIRTMKMRQQASFLPATLTMTVDKGDNVNISFKKVLIKEEDAVIYKNGSFIHSVPRAEVPDILEVHLPHAQPQDAGVYSARYIGGNLFTSAFTRLIVRRCEAQKWGPECNHLCTACMNNGVCHEDTGECICPPGFMGRTCEKACELHTFGRTCKERCSGQEGCKSYVFCLPDPYGCSCATGWKGLQCNEACHPGFYGPDCKLRCSCNNGEMCDRFQGCLCSPGWQGLQCEREGIQRMTPKIVDLPDHIEVNSGKFNPICKASGWPLPTNEEMTLVKPDGTVLHPKDFNHTDHFSVAIFTIHRILPPDSGVWVCSVNTVAGMVEKPFNISVK
 |  | binds | Tie2 ectodomain-Fc Arg167Ala/His168Ala/Glu169Ala (Fc fusion, human, UniProt Q02763 23-442, looked up, signal peptide in the construct; Tie2 ectodomain, human, residues 1-442; also called triple alanine substitution of Arg167, His168 and Glu169; source: Hek293, transfected, purified from culture medium (nickel chromatography); not shown: Fc (fragment of human Fc immunoglobulin domain, after a GS4 linker), C-terminal, kept) AMDLILINSLPLVSDAETSLTCIASGWRPHEPITIGRDFEALMNQHQDPLEVTQDVTREWAKKVVWKREKASKINGAYFCEGRVRGEAIRIRTMKMRQQASFLPATLTMTVDKGDNVNISFKKVLIKEEDAVIYKNGSFIHSVPAAAVPDILEVHLPHAQPQDAGVYSARYIGGNLFTSAFTRLIVRRCEAQKWGPECNHLCTACMNNGVCHEDTGECICPPGFMGRTCEKACELHTFGRTCKERCSGQEGCKSYVFCLPDPYGCSCATGWKGLQCNEACHPGFYGPDCKLRCSCNNGEMCDRFQGCLCSPGWQGLQCEREGIQRMTPKIVDLPDHIEVNSGKFNPICKASGWPLPTNEEMTLVKPDGTVLHPKDFNHTDHFSVAIFTIHRILPPDSGVWVCSVNTVAGMVEKPFNISVK
9 nM | 3.94 nM |  | Tie2 ectodomain-Fc E169A (Fc fusion, human, UniProt Q02763 23-442, looked up, signal peptide in the construct; Tie2 ectodomain, human, residues 1-442; also called Glu169Ala; source: Hek293, transfected, purified from culture medium (nickel chromatography); not shown: Fc (fragment of human Fc immunoglobulin domain, after a GS4 linker), C-terminal, kept) AMDLILINSLPLVSDAETSLTCIASGWRPHEPITIGRDFEALMNQHQDPLEVTQDVTREWAKKVVWKREKASKINGAYFCEGRVRGEAIRIRTMKMRQQASFLPATLTMTVDKGDNVNISFKKVLIKEEDAVIYKNGSFIHSVPRHAVPDILEVHLPHAQPQDAGVYSARYIGGNLFTSAFTRLIVRRCEAQKWGPECNHLCTACMNNGVCHEDTGECICPPGFMGRTCEKACELHTFGRTCKERCSGQEGCKSYVFCLPDPYGCSCATGWKGLQCNEACHPGFYGPDCKLRCSCNNGEMCDRFQGCLCSPGWQGLQCEREGIQRMTPKIVDLPDHIEVNSGKFNPICKASGWPLPTNEEMTLVKPDGTVLHPKDFNHTDHFSVAIFTIHRILPPDSGVWVCSVNTVAGMVEKPFNISVK
0.44 nM | 14.4 nM |  | Tie2 ectodomain-Fc S164A (Fc fusion, human, UniProt Q02763 23-442, looked up, signal peptide in the construct; Tie2 ectodomain, human, residues 1-442; source: Hek293, transfected, purified from culture medium (nickel chromatography); not shown: Fc (fragment of human Fc immunoglobulin domain, after a GS4 linker), C-terminal, kept) AMDLILINSLPLVSDAETSLTCIASGWRPHEPITIGRDFEALMNQHQDPLEVTQDVTREWAKKVVWKREKASKINGAYFCEGRVRGEAIRIRTMKMRQQASFLPATLTMTVDKGDNVNISFKKVLIKEEDAVIYKNGSFIHAVPRHEVPDILEVHLPHAQPQDAGVYSARYIGGNLFTSAFTRLIVRRCEAQKWGPECNHLCTACMNNGVCHEDTGECICPPGFMGRTCEKACELHTFGRTCKERCSGQEGCKSYVFCLPDPYGCSCATGWKGLQCNEACHPGFYGPDCKLRCSCNNGEMCDRFQGCLCSPGWQGLQCEREGIQRMTPKIVDLPDHIEVNSGKFNPICKASGWPLPTNEEMTLVKPDGTVLHPKDFNHTDHFSVAIFTIHRILPPDSGVWVCSVNTVAGMVEKPFNISVK
6.38 nM | 23.1 nM |  | Tie2 ectodomain-Fc I162A (Fc fusion, human, UniProt Q02763 23-442, looked up, signal peptide in the construct; Tie2 ectodomain, human, residues 1-442; source: Hek293, transfected, purified from culture medium (nickel chromatography); not shown: Fc (fragment of human Fc immunoglobulin domain, after a GS4 linker), C-terminal, kept) AMDLILINSLPLVSDAETSLTCIASGWRPHEPITIGRDFEALMNQHQDPLEVTQDVTREWAKKVVWKREKASKINGAYFCEGRVRGEAIRIRTMKMRQQASFLPATLTMTVDKGDNVNISFKKVLIKEEDAVIYKNGSFAHSVPRHEVPDILEVHLPHAQPQDAGVYSARYIGGNLFTSAFTRLIVRRCEAQKWGPECNHLCTACMNNGVCHEDTGECICPPGFMGRTCEKACELHTFGRTCKERCSGQEGCKSYVFCLPDPYGCSCATGWKGLQCNEACHPGFYGPDCKLRCSCNNGEMCDRFQGCLCSPGWQGLQCEREGIQRMTPKIVDLPDHIEVNSGKFNPICKASGWPLPTNEEMTLVKPDGTVLHPKDFNHTDHFSVAIFTIHRILPPDSGVWVCSVNTVAGMVEKPFNISVK
